Data published in US20120020975A1.

How the values were obtained:
[1] = biological target: human PCSK9 (proprotein convertase subtilisin kexin type 9), mature form (human) (UniProt Q8NBP7); experiment: KinExA solution equilibrium, PCSK9-coated beads
[2] = biological target: human PCSK9 (proprotein convertase subtilisin kexin type 9), mature form (human) (UniProt Q8NBP7); experiment: BIAcore SPR, pH 6.0
[3] = biological target: human PCSK9 (proprotein convertase subtilisin kexin type 9), mature form (human) (UniProt Q8NBP7); experiment: BIAcore SPR, antibody amine-coupled to CM5 chip, PCSK9 as analyte, pH 7.4
[4] = biological target: human PCSK9 (proprotein convertase subtilisin kexin type 9), mature form (human) (UniProt Q8NBP7); experiment: BIAcore SPR, pH 7.4
[5] = biological target: human PCSK9 (proprotein convertase subtilisin kexin type 9), mature form (human) (UniProt Q8NBP7); experiment: BIAcore solution equilibrium binding assay, free PCSK9 read on immobilized 21B12

B1: 16F12, anti-PCSK9 huIgG4 (antibody, V domains shown)
VH: QVHLVESGGGVVQPGRSLRLSCAASGFTFNSFGMHWVRQAPGKGLEWVALIWSDGSDEYYADSVKGRFTISRDNSKNTLYLQMNSLRAEDTAVYYCARAIAALYYYYGMDVWGQGTTVTVSS
VL: QSVLTQPPSVSAAPGQKVTISCSGSSSNIGNNFVSWYQQLPGTAPKLLIYDYNKRPSGIPDRFSGSKSGTSATLGITGLQTGDEADYYCGTWDSSLSAYVFGTGTRVTVLQ
- Kd [1]: 0.015 nM
- Kd [2]: 0.029 nM
- koff [2]: 7.01e-05 s⁻¹
- kon [2]: 2.39e+06 M⁻¹ s⁻¹
- Kd [3]: 0.47 nM
- Kd [4]: 0.47 nM
- koff [4]: 4.98e-05 s⁻¹
- kon [4]: 106000 M⁻¹ s⁻¹

B2: 21B12, anti-PCSK9 huIgG4 (antibody, V domains shown)
VH: QVQLVQSGAEVKKPGASVKVSCKASGYTLTSYGISWVRQAPGQGLEWMGWVSFYNGNTNYAQKLQGRGTMTTDPSTSTAYMELRSLRSDDTAVYYCARGYGMDVWGQGTTVTVSS
VL: QSALTQPASVSGSPGQSITISCTGTSSDVGGYNSVSWYQQHPGKAPKLMIYEVSNRPSGVSNRFSGSKSGNTASLTISGLQAEDEADYYCNSYTSTSMVFGGGTKLTVLQ
- Kd [5]: 0.015 nM
- Kd [2]: 0.0073 nM
- koff [2]: 1.68e-05 s⁻¹
- kon [2]: 2.29e+06 M⁻¹ s⁻¹
- Kd [3]: 0.19 nM
- Kd [4]: 0.19 nM
- koff [4]: 6.63e-06 s⁻¹
- kon [4]: 34900 M⁻¹ s⁻¹
